Experimental data reported in the supplement of paper PMC9170038.

System: MS2 coat protein
Assay: apparent KD of MS2 coat protein; designed switch direction (-1 OFF switch, 1 ON switch): -1; higher = weaker reporter binding
Procedure, shortened: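 The reported apparent KD is a per-design median over clusters, from curve fits of normalised cluster fluorescence. Protein titrations used SNAP-549-labelled MS2 coat protein, doubled from 0.7 or 1.5 nM to 3 µM, in Tris-HCl pH 7.5 buffer with KCl, MgCl2, BSA, DTT, tRNA and Tween-20, with no input, 200 uM small-molecule ligand, or an oligonucleotide input. The RNA switches were transcribed on Illumina chips by stalled E. coli RNA polymerase.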

[1] = input ligand: microRNA oligo, concentration not stated
[2] = Eterna round: R95, input ligand: FMN 200 uM
[3] = Eterna round: R95, input ligand: microRNA oligo, concentration not stated
[4] = Eterna round: R95, input ligand: none

GAUGUUCGAGUUAGGAUAUGAAUCCAUACCGGACAUCAGAAGGAACUUGAGGAUCACCCAAGUGGGAAAGAAAU [Orzavera] (Eterna round: R97, puzzle: Brourd's mod of Exclusion 4)
apparent KD of MS2 coat protein (input ligand: FMN 200 uM): 26.3 nM
apparent KD of MS2 coat protein (input ligand: none): 23.5 nM

CUCGCAUUAGGAUAUACAUGAGGAUCACCCAUGUAUAAACCCAGGGUCAACGCCAUAUGUAGAAGGAGUAGCGA [Eternabot (L1) Solution 59] (Eterna round: R97, puzzle: Exclusion 3)
apparent KD of MS2 coat protein (input ligand: FMN 200 uM): 22.2 nM
apparent KD of MS2 coat protein (input ligand: none): 17 nM

GAAACGGGUGCACCUCAGUCACAUGAGGAUCACCCAUGUUCUGAGGAUAUGCAUCCAAACGGAACGCAGAAGGCGGAACGUAAC [Beisoner] (Eterna round: R96, puzzle: Exclusion NG 3)
apparent KD of MS2 coat protein (input ligand: FMN 200 uM): 14.6 nM
apparent KD of MS2 coat protein [1]: 14 nM
apparent KD of MS2 coat protein (input ligand: none): 16.4 nM

GGUACUAACACGAUAGUGUUAGUACUAUAAGCUUGUGUUACAUGAGGAUCACCCAUGUCCUCAUAGGCUCGUCUUAU [Mat - Sensor v3 - Turn-off var 2 - D86] (puzzle: Sensor v3, turn-off variant 2)
apparent KD of MS2 coat protein [2]: 169 nM
apparent KD of MS2 coat protein [3]: 30.8 nM
apparent KD of MS2 coat protein [4]: 166 nM

CUAUGAGCUGAGGAUAUCUGCAGGUUGGGCCUGGGAGAAGGCGGCACAUGAGGAUCACCCAUGUGACCGAAAUA [Mod2 Ex6 A.17 by Nando] (Eterna round: R97, puzzle: Exclusion 6)
apparent KD of MS2 coat protein (input ligand: FMN 200 uM): 16.3 nM
apparent KD of MS2 coat protein (input ligand: none): 12.7 nM

ACAAGCUUUUUGCUCGUCGAGUAGAAACGUGAGAGCGAGACAUGAGGAUCACCCAUGUAAAGGCAGUAGGUGGAGAU [JR_SV3TOV2_Sub025] (puzzle: Sensor v3, turn-off variant 2)
apparent KD of MS2 coat protein [2]: 33.2 nM
apparent KD of MS2 coat protein [3]: 43.2 nM
apparent KD of MS2 coat protein [4]: 33.9 nM

UUAUUAUAUGUAGGAUAUGCGUAUUAUUAUUAUGCAGAAGGACAUGAGGAUCACCCAUGUAUAUUAUUAUUAUAUAUUAUAUAU [Title] (Eterna round: R96, puzzle: Exclusion NG 1)
apparent KD of MS2 coat protein [1]: 23.5 nM

GGUUUGGGAGGAUAUGGUUUUAAUAACAUGAGGAUCACCCAUGUAAAUAGAUCCUCAAGGCCAGAAGGCUCGGGCC [-24.9, -24.02 kcal, A 29%] (Eterna round: R97, puzzle: Exclusion 5)
apparent KD of MS2 coat protein (input ligand: FMN 200 uM): 508 nM
apparent KD of MS2 coat protein (input ligand: none): 143 nM

AGUAACUAUCACGAAAGUGAUAGUUACACAAGUGUAAUAACAUGAGGAUCACCCAUGUCCUCAUUUGCUCGUCUUAU [Sensor 3 - 34] (puzzle: Sensor v3, turn-off variant 2)
apparent KD of MS2 coat protein [2]: 149 nM
apparent KD of MS2 coat protein [3]: 162 nM
apparent KD of MS2 coat protein [4]: 33.6 nM

ACUUAUUGAGGAUAUACAUUAAAUUACAUGAGGAUCACCCAUGUUCUUCAAUGUAUAUAUGCAGAAGGCAGAAGAA [JL-ex5-4.28 Malcolm mod] (Eterna round: R97, puzzle: Exclusion 5)
apparent KD of MS2 coat protein (input ligand: FMN 200 uM): 13.4 nM
apparent KD of MS2 coat protein (input ligand: none): 12.8 nM

AUAAAAGAAGUUAGGAUAUGGAAUCGUGGCAACGACCAGAAGGAACUUGAGGAUCACCCAAGUGAUUCUGAUCG [Atzaace] (Eterna round: R97, puzzle: Brourd's mod of Exclusion 4)
apparent KD of MS2 coat protein (input ligand: FMN 200 uM): 15.2 nM
apparent KD of MS2 coat protein (input ligand: none): 14.1 nM

UAGUGGUUACGUUGGAGUUGUAUGAGCGGAGGCUCUGUGACAUGAGGAUCACCCAUGUAGCUUUUUGCUCGUCUUAA [JR_SV3TOV2_Sub039] (puzzle: Sensor v3, turn-off variant 2)
apparent KD of MS2 coat protein [2]: 22.5 nM
apparent KD of MS2 coat protein [3]: 41.5 nM
apparent KD of MS2 coat protein [4]: 22.6 nM

CGAUAUAACGUAGGAUAUCUGAGAAAUAGAUGAAGAGAAGGACGACAUGAGGAUCACCCAUGUGAUCUAUCAAUAUUAUACAUG [Prohibition 96 - Jieux - Exclusion NG 1] (Eterna round: R96, puzzle: Exclusion NG 1)
apparent KD of MS2 coat protein (input ligand: FMN 200 uM): 722 nM
apparent KD of MS2 coat protein [1]: 694 nM
apparent KD of MS2 coat protein (input ligand: none): 604 nM

UUAUAUAGAGUGAGGAUAUGCUGGUCCUUGGAUCAGCAGAAGGCACAUGAGGAUCACCCAUGUAAAAUAAUAUU [Mat - Exclusion 4 - JL Mod - D39] (puzzle: Brourd's mod of Exclusion 4)
apparent KD of MS2 coat protein [3]: 21.1 nM

GGCACACAUGAGGAUCACCCAUGUGAGGAUAUGUGGCGAUCGUCGAUAGACGAUAGCCACAGAAGGCACAGGCC [Mat - Exclusion 1 - Eli Mod - D21] (Eterna round: R97, puzzle: Exclusion 1)
apparent KD of MS2 coat protein (input ligand: FMN 200 uM): 23.2 nM
apparent KD of MS2 coat protein (input ligand: none): 19.2 nM

ACAUGAGGAUCACCCAUGUACAGGGUUUAGUUUCAUUGUUUGAAGGAUAUACUUAGUUAGUUGUUGUAGAAGGUCAUAUUUUAU [JR_ExcNG3_Sub002] (Eterna round: R96, puzzle: Exclusion NG 3)
apparent KD of MS2 coat protein [1]: 156 nM

GUGUAGUAAGGAUAUAGAAAGAGGGAGUAAGAUAGAGAGUUCUAGAAGGUACAUGAGGAUCACCCAUGUUGGAG [JR_Exclu4_Sub082] (puzzle: Exclusion 4)
apparent KD of MS2 coat protein [2]: 24.9 nM
apparent KD of MS2 coat protein [3]: 28.9 nM
apparent KD of MS2 coat protein [4]: 27.8 nM

CACCCUUCAGGAUAUACAUGAGGAUCACCCAUGUGUUCCAGCUAGGAAACUAGCAAAUGUAGAAGGGAAGGGUG [Mat - Exclusion 3 - JL Mod - D5] (Eterna round: R97, puzzle: Exclusion 3)
apparent KD of MS2 coat protein (input ligand: FMN 200 uM): 452 nM
apparent KD of MS2 coat protein (input ligand: none): 108 nM

UGAAGUUGUGUGAGGAUAUUUGAAGUGAAAGCUUCGGAGAAGGCACAUGAGGAUCACCCAUGUAAGCGGCUUCG [-25.1, -23 kcal, A 26%, 3bis-3] (Eterna round: R97, puzzle: Brourd's mod of Exclusion 4)
apparent KD of MS2 coat protein (input ligand: FMN 200 uM): 18.4 nM
apparent KD of MS2 coat protein (input ligand: none): 15 nM

UGAGUGCUGCGAGGAUAUACAUGAGGAUCACCCAUGUGGAUGUCUGAGGCUUUGCCUCAGACAAUGUAGAAGGCGCAGUACUCU [JL ENG2 1.21] (Eterna round: R96, puzzle: Exclusion NG 2)
apparent KD of MS2 coat protein (input ligand: FMN 200 uM): 96.4 nM
apparent KD of MS2 coat protein [1]: 14.2 nM
apparent KD of MS2 coat protein (input ligand: none): 21 nM

UUCCAACGAGGAUAUCGAUGGUGGAACAUGAGGAUCACCCAUGUAUGAGAUAUUGUAGUUCGAGAAGGCGUUCAGU [JR_E5_Sub056] (puzzle: Exclusion 5)
apparent KD of MS2 coat protein [3]: 31.5 nM

AGGAGGAGUUCAGGAUAUUCGACAUGAGGAUCACCCAUGUGGGUAAUAUAUAGUAAAGAGAUAGAGAAGAAGGGAAGGGAGGAG [Exclusion NG2] (Eterna round: R96, puzzle: Exclusion NG 2)
apparent KD of MS2 coat protein (input ligand: FMN 200 uM): 42.5 nM
apparent KD of MS2 coat protein [1]: 23.5 nM
apparent KD of MS2 coat protein (input ligand: none): 36 nM

GCUAGACAUGUCAGGAUAUGCUGUACCUUGGUACAGCAGAAGGGACAUGAGGAUCACCCAUGUGCCUAUCUAGC [JL-BMX4-4.05] (Eterna round: R97, puzzle: Brourd's mod of Exclusion 4)
apparent KD of MS2 coat protein (input ligand: FMN 200 uM): 308 nM
apparent KD of MS2 coat protein (input ligand: none): 43.6 nM

GCAGCUAAUCGAGGAUAUCAGCACGUGUAGUGCUGAGAAGGCGACAUGAGGAUCACCCAUGUGAUCAAUUAAUAUUAAUGCUGC [ENG1/11-A3] (Eterna round: R96, puzzle: Exclusion NG 1)
apparent KD of MS2 coat protein (input ligand: FMN 200 uM): 893 nM
apparent KD of MS2 coat protein [1]: 308 nM
apparent KD of MS2 coat protein (input ligand: none): 414 nM

AAUAUAAGCAAGAUCCUAAACAUGAGGAUCACCCAUGUGCUCGUCUUAUAAAGUACUAUCACGAAAGUGAUAGUACA [Sensor 3, v1 - 65] (puzzle: Sensor v3, turn-off variant 1)
apparent KD of MS2 coat protein [2]: 111 nM
apparent KD of MS2 coat protein [3]: 398 nM
apparent KD of MS2 coat protein [4]: 127 nM

CUCAUGUGUGAGGAUAUUAGAGCGAGCGUGUGAUAAGAAGGCACAACAUGAGGAUCACCCAUGUAGAGAGAGUG [Alacar 1st] (Eterna round: R97, puzzle: Exclusion 6)
apparent KD of MS2 coat protein (input ligand: FMN 200 uM): 28.9 nM
apparent KD of MS2 coat protein (input ligand: none): 69.6 nM

GACUUCCGAGGAUAUACAUGAGGAUCACCCAUGUGCUUCAGCAUUUUUUGAUGCAUGGGUAGAAGGCGGUAGUU [LRO-Excl3-16] (puzzle: Exclusion 3)
apparent KD of MS2 coat protein [3]: 226 nM

AAGUACCGUCACGAUAGUGAUGGUACAACAGGUAAAUGUACAUGAGGAUCACCCAUGUCCUCUUUUGCUCGUCUUAU [Sensor 3 - 93] (puzzle: Sensor v3, turn-off variant 2)
apparent KD of MS2 coat protein [2]: 147 nM
apparent KD of MS2 coat protein [3]: 36.2 nM
apparent KD of MS2 coat protein [4]: 160 nM

UAUUAACAAGCAAGGUCCCACAUGAGGAUCACCCAUGUGCUCGUCUUAUAAGGUACUGUGACGAAAGUCACGGUACC [Sensor 3, v1 - 81] (puzzle: Sensor v3, turn-off variant 1)
apparent KD of MS2 coat protein [2]: 32.4 nM
apparent KD of MS2 coat protein [3]: 469 nM
apparent KD of MS2 coat protein [4]: 33.6 nM

CUGUUUUUCGCAGGAUAUGCUCCUCCUUUAUUUGCAGAAGGGCGUUAAACAUGAGGAUCACCCAUGUAUGGUAAUGACUUUUUC [JR_ExcNG1_Sub064] (Eterna round: R96, puzzle: Exclusion NG 1)
apparent KD of MS2 coat protein [1]: 16.9 nM

GUUAGUUAAGGAUAUACAGGGAGCUGCGGCGUCUCGCCGCAACAUGAGGAUCACCCAUGUAGAAGGUAGCCGUU [JL ViennaUCT Enbibi mod 8] (puzzle: Exclusion 2)
apparent KD of MS2 coat protein [3]: 53.2 nM

ACAUGAGGAUCACCCAUGUAAUCAUAAUGGCUGAUGUAGAGUCAGGAUAUGUGUGGCUAACAAUCGCAGAAGGGACAAGACUGG [Deportation 32 - Jieux - Exclusion NG 3] (Eterna round: R96, puzzle: Exclusion NG 3)
apparent KD of MS2 coat protein (input ligand: FMN 200 uM): 31.4 nM
apparent KD of MS2 coat protein [1]: 21.6 nM
apparent KD of MS2 coat protein (input ligand: none): 29.5 nM

AAGAAACAUGAGGAUCACCCAUGUGAGGAUAUGACAAAGAAAAGAAAAGAAAGAAGACUCAGAAGGCACAAAGG [salish99-ex1_r3_039] (puzzle: Exclusion 1)
apparent KD of MS2 coat protein [2]: 46.3 nM
apparent KD of MS2 coat protein [3]: 40.6 nM
apparent KD of MS2 coat protein [4]: 52 nM
